# Data from the supplement of paper PMC9112550, “Optimization of the antimicrobial peptide Bac7 by deep mutational scanning” (BMC Biology, 2022).
# System: Escherichia coli TOP10
# Test: shrunken log2 fold change of peptide-encoding DNA abundance (4.5 h post-induction vs induction); higher = less antimicrobial activity (less host growth inhibition)
# Settings: time post-induction: 4.5 h; library: site-saturation at positions 5, 18, 19, 20
# 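Also: peptides expressed intracellularly from a pBAD plasmid library in pooled LB shake-flask culture, induced with 0.3% L-arabinose, DNA abundance read by NGS, three biological replicates, DESeq2 with apeglm shrinkage.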
row,Sequence,shrunken log2 fold change
1,RRIRCRPPRLPRPRPRPNKLPRP,-0.283
2,RRIRWRPPRLPRPRPRPMFIPRP,-0.378
3,RRIRARPPRLPRPRPRPKLMPRP,0.357
4,RRIRSRPPRLPRPRPRPQGGPRP,0.171
5,RRIRGRPPRLPRPRPRPMGIPRP,0.0179
6,RRIRSRPPRLPRPRPRPNDIPRP,-0.333
7,RRIRWRPPRLPRPRPRPGCEPRP,0.901
8,RRIRCRPPRLPRPRPRPVMTPRP,-0.147
9,RRIRTRPPRLPRPRPRPTITPRP,0.184
10,RRIRKRPPRLPRPRPRPDPWPRP,0.422
11,RRIRMRPPRLPRPRPRPRGDPRP,1.73
12,RRIRDRPPRLPRPRPRPYLMPRP,-0.187
13,RRIRCRPPRLPRPRPRPLFVPRP,-0.482
14,RRIRRRPPRLPRPRPRPIEVPRP,0.0048
15,RRIRHRPPRLPRPRPRPNMFPRP,-0.464
16,RRIRSRPPRLPRPRPRPVITPRP,-0.0353
17,RRIRNRPPRLPRPRPRPKDWPRP,0.0256
18,RRIRNRPPRLPRPRPRPYRQPRP,-0.01
19,RRIRFRPPRLPRPRPRPIEYPRP,-0.00801
20,RRIRIRPPRLPRPRPRPYHRPRP,-0.00133
21,RRIRQRPPRLPRPRPRPNAFPRP,0.227
22,RRIRYRPPRLPRPRPRPFDCPRP,-0.0565
23,RRIRTRPPRLPRPRPRPNDEPRP,-0.0966

row,Sequence,shrunken log2 fold change
1,RRIRSRPPRLPRPRPRPSQSPRP,-0.242
2,RRIRCRPPRLPRPRPRPDDIPRP,0.0301
3,RRIRCRPPRLPRPRPRPRIHPRP,-0.226
4,RRIRPRPPRLPRPRPRPCRSPRP,-0.136
5,RRIRYRPPRLPRPRPRPKFRPRP,-0.102
6,RRIRYRPPRLPRPRPRPNKHPRP,-0.916
7,RRIRPRPPRLPRPRPRPEPCPRP,0.215
8,RRIRGRPPRLPRPRPRPYQKPRP,-0.00887
9,RRIRPRPPRLPRPRPRPYLEPRP,-0.634
10,RRIRLRPPRLPRPRPRPTYCPRP,-1
11,RRIRVRPPRLPRPRPRPHWYPRP,-0.463
12,RRIRKRPPRLPRPRPRPCWAPRP,0.114
13,RRIRMRPPRLPRPRPRPEGDPRP,4.15
14,RRIRHRPPRLPRPRPRPELCPRP,-0.135
15,RRIRARPPRLPRPRPRPKRVPRP,0.455
16,RRIRYRPPRLPRPRPRPDNFPRP,-1.09
17,RRIRNRPPRLPRPRPRPIYQPRP,0.0607
18,RRIRWRPPRLPRPRPRPAAFPRP,0.334
19,RRIRPRPPRLPRPRPRPPWCPRP,0.0891
20,RRIRGRPPRLPRPRPRPFEHPRP,0.212
21,RRIRYRPPRLPRPRPRPFCSPRP,-0.425
22,RRIRARPPRLPRPRPRPSWTPRP,-0.392
23,RRIRMRPPRLPRPRPRPRGYPRP,0.0597

row,Sequence,shrunken log2 fold change
1,RRIRTRPPRLPRPRPRPSETPRP,0.11
2,RRIRFRPPRLPRPRPRPYITPRP,-0.906
3,RRIRSRPPRLPRPRPRPVWYPRP,0.154
4,RRIRIRPPRLPRPRPRPEKHPRP,-0.106
5,RRIRERPPRLPRPRPRPNPCPRP,-0.226
6,RRIRRRPPRLPRPRPRPVKKPRP,0.0447
7,RRIRKRPPRLPRPRPRPFDDPRP,-0.131
8,RRIRQRPPRLPRPRPRPHHNPRP,-0.706
9,RRIRVRPPRLPRPRPRPTRAPRP,0.665
10,RRIRCRPPRLPRPRPRPILEPRP,-0.247
11,RRIRHRPPRLPRPRPRPRWLPRP,0.144
12,RRIRIRPPRLPRPRPRPAYNPRP,-0.111
13,RRIRMRPPRLPRPRPRPPAMPRP,1.02
14,RRIRLRPPRLPRPRPRPTSYPRP,-0.395
15,RRIRWRPPRLPRPRPRPRWCPRP,-0.00787
16,RRIRGRPPRLPRPRPRPESSPRP,1.26
17,RRIRARPPRLPRPRPRPIKSPRP,0.226
18,RRIRARPPRLPRPRPRPICVPRP,0.154
19,RRIRSRPPRLPRPRPRPYWYPRP,-1.45
20,RRIRARPPRLPRPRPRPVPMPRP,0.404
21,RRIRNRPPRLPRPRPRPAPRPRP,1.6
22,RRIRHRPPRLPRPRPRPVWYPRP,0.00395
23,RRIRFRPPRLPRPRPRPIIPPRP,-0.677

row,Sequence,shrunken log2 fold change
1,RRIRWRPPRLPRPRPRPSPIPRP,-0.0871
2,RRIRSRPPRLPRPRPRPLTCPRP,-0.114
3,RRIRFRPPRLPRPRPRPYAAPRP,-0.586
4,RRIRNRPPRLPRPRPRPVTRPRP,-0.124
5,RRIRLRPPRLPRPRPRPLDRPRP,0.25
6,RRIRVRPPRLPRPRPRPMHWPRP,0.253
7,RRIRGRPPRLPRPRPRPTKGPRP,0.2
8,RRIRRRPPRLPRPRPRPYCFPRP,-0.37
9,RRIRQRPPRLPRPRPRPEQEPRP,-0.0311
10,RRIRKRPPRLPRPRPRPFNGPRP,-0.407
11,RRIRWRPPRLPRPRPRPPSHPRP,0.163
12,RRIRPRPPRLPRPRPRPGTCPRP,0.182
13,RRIRNRPPRLPRPRPRPSLRPRP,-0.00371
14,RRIRHRPPRLPRPRPRPLCGPRP,-0.302
15,RRIRMRPPRLPRPRPRPWVLPRP,0.0155
16,RRIRWRPPRLPRPRPRPVHCPRP,-0.162
17,RRIRWRPPRLPRPRPRPSPRPRP,0.299
18,RRIRIRPPRLPRPRPRPEMLPRP,-0.119
19,RRIRKRPPRLPRPRPRPEDCPRP,-0.00264
20,RRIRWRPPRLPRPRPRPDKVPRP,0.0749
21,RRIRVRPPRLPRPRPRPIMAPRP,-0.111
22,RRIRARPPRLPRPRPRPNKFPRP,-0.3
